In patent publication US20190119348A1, “PARATHYROID HORMONE RECEPTOR 1 ANTAGONIST AND INVERSE AGONIST POLYPEPTIDES AND METHODS OF THEIR USE” (The General Hospital Corporation, priority 2016, published 2019):
Where a SMILES comes first, the peptide text is derived from it. [ ]: non-standard residue; d: D form. Nle = CCCC[C@H](N)C(=O)O

Experiments:
endogenous hPTHR1 = target: T1, endogenous hPTHR1 (Homo sapiens, UniProt Q03431); assay: Antagonism of PTH(1-34)- and PTHrP(1-36)-induced cAMP response (GloSensor) in SGS-72 cells; assay type: cell-based; conditions: IC50 PTH(1-34) (Table 6, nanomolar value), antagonist pre-treatment 15 minutes, PTH(1-34) 0.3 nM
T1 construct: Saos-2, in which is endogenously expressed the hPTHR1; endogenous in cells
T1 sequence (Q03431 27-593): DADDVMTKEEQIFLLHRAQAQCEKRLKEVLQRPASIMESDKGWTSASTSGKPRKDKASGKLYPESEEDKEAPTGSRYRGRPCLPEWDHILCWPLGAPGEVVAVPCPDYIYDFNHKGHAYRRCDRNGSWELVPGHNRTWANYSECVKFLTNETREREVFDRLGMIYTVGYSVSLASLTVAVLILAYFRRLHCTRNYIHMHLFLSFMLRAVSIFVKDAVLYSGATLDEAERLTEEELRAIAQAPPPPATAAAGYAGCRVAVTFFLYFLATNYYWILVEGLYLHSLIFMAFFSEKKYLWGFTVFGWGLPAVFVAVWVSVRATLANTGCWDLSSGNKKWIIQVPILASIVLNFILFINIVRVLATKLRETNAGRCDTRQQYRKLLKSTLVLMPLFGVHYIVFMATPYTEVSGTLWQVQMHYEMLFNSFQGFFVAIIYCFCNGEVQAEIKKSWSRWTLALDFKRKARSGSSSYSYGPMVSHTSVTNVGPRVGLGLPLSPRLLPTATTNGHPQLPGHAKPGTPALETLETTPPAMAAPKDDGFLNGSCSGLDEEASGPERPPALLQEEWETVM
Method: cAMP signaling was assessed in the HEK293-derived or SaOS2-derived cell lines stably expressing the luciferase-based GloSensorTM cAMP reporter ([…] al., Paper presented at: Novel Signaling Mechanisms and Bone Cell Biology 2014; Binkowski et al., Methods in molecular biology. 756:263-271). HEK-293 cells were further transfected to stably express the hPTHR1, hPTHR1-H223R, or hPTHR1-T410P. The cells were seeded into 96-well white plates and were assayed 24 to 48 hours post-confluency. Assays were performed at room temperature in CO2-independent culture media (Life Technologies, Corp., Carlsbad, Calif.) containing 0.1% BSA (CIDB). The cells were pre-loaded with luciferin (0.5 mM in CIDB) for 15 minutes, then PTH peptides were added at varying concentrations. cAMP-dependent luminescence was measured at two-minute intervals using a PerkinElmer Envision plate reader. The time at which maximum luminescence (cps) observed with agonist alone, typically at 10-20 minutes after agonist addition, was used to obtain data from wells containing antagonist with or without agonist, to thus generate antagonist ligand dose-response curves. The resulting cps values were then plotted against ligand concentration using GraphPad Prism 7.0 software and a four-parameter logistics curve fitting equation, which yielded parameters of inhibitory potency (pIC50). Pharmacological properties of the ligands were assessed in cells expressing the PTHR1 and the GloSensorTM cAMP reporter. The assays used GP-2.3 cells, derived from HEK293 cells by stable transfection with the hPTHR1 and GloSensorTM, as well as SGS-72 cells, which are derived from the human osteosarcoma cell line, Saos-2, in which is endogenously expressed the hPTHR1, by stable transfection with GloSensorTM. Binding of representative polypeptides to the PTHR1 was assessed in GP-2.3 cells by radioligand competition methods (FIGS. 1A and 1B, Table 3). […] In Table 5, antagonist assays were performed in SGS-72 cells (SaOS2 cells with stable GloSensorTM cAMP reporter) at room temperature. […] The mean (±sem) concentration of antagonist that inhibited the maximum agonist-induced response observed in the absence of antagonist (at 40 minutes) is reported in units of -log M (pIC50), and the corresponding nanomolar value is shown below each pIC50 value. Data are means of the number of seven experiments. The PTH(1-34)-induced maximum luminescence was 500,000 cps and the basal was 5,000 cps. TMR indicates Lys13 modified at epsilon amino function with TMR. The data are illustrated in FIG. 7A. […] Date are means (±SEM) of the number of separate experiments indicated by n.

[1] = target: human parathyroid hormone receptor 1 (hPTHR1) (human) (UniProt Q03431); assay: cell-based or functional assay

Molecule | IC50 (nanomolar value of the pIC50), antagonism of PTH(1-34)-induced cAMP response, GP-2.3 cells [1] | pIC50, antagonism of PTH(1-34)-induced cAMP response (GloSensor), GP-2.3 cells [1] | IC50, antagonism of PTH(1-34) (0.3 nM)-induced cAMP response, SGS-72 cells [1] [nM] | pIC50, antagonism of PTH(1-34) (0.3 nM)-induced cAMP response, SGS-72 cells [1] | further results
CCCC[C@H](NC(=O)[C@H](CC(C)C)NC(=O)[C@H](CCC(N)=O)NC(=O)[C@@H](N)[C@@H](C)CC)C(=O)N[C@@H](Cc1c[nH]cn1)C(=O)N[C@@H](CCC(N)=O)C(=O)N[C@@H](CCCNC(=N)N)C(=O)N[C@H](Cc1c[nH]c2ccccc12)C(=O)N[C@@H](CCCCN)C(=O)N[C@@H](Cc1c[nH]c2ccccc12)C(=O)N[C@H](C(=O)N[C@@H](CCC(N)=O)C(=O)N[C@@H](CC(=O)O)C(=O)N[C@@H](C)C(=O)N[C@@H](CCCNC(=N)N)C(=O)N[C@@H](CCCNC(=N)N)C(=O)N[C@@H](CCCNC(=N)N)C(=O)N[C@@H](C)C(=O)N[C@@H](Cc1c[nH]c2ccccc12)C(=O)N[C@@H](CC(C)C)C(=O)N[C@@H](Cc1c[nH]cn1)C(=O)N[C@@H](CCCCN)C(=O)N[C@@H](CC(C)C)C(=O)N[C@H](C(=O)N[C@@H](C)C(=O)N[C@@H](CCC(=O)O)C(=O)N[C@H](C(=O)N[C@@H](Cc1c[nH]cn1)C(=O)N[C@H](C(=O)N[C@@H](C)C(=O)N[C@@H](CCC(=O)O)C(=O)N[C@@H](Cc1ccc(O)cc1)C(N)=O)[C@@H](C)O)[C@@H](C)CC)[C@@H](C)CC)[C@@H](C)CC [compound 1954, Nle8, dW12, W23, Y36-LA-PTH(5-36)] (H-IQL[Nle]HQR[dW]KWIQDARRRAWLHKLIAEIHTAEY-NH2; N-terminus assumed) |  |  |  |  | IC50 (endogenous hPTHR1): 1.75 nM
PEG20-Nle8, TMR, dW12, W23, C37-LA-PTH(5-37)-1978 (peptide) | 642 nM | 6.19 -log M | 24.1 | 7.62 -log M | IC50 (nanomolar value of the pIC50), antagonism of PTH(1-34)-induced cAMP response, SGS-72 cells [1]: 21 nM; IC50 (nanomolar value of the pIC50), antagonism of PTHrP(1-36)-induced cAMP response, SGS-72 cells [1]: 13 nM; IC50, antagonism of PTHrP(1-36) (0.3 nM)-induced cAMP response, SGS-72 cells [1]: 12.9 nM; pIC50, antagonism of PTH(1-34)-induced cAMP response, SGS-72 cells [1]: 7.68 -log M; pIC50, antagonism of PTHrP(1-36) (0.3 nM)-induced cAMP response, SGS-72 cells [1]: 7.89 -log M; pIC50, antagonism of PTHrP(1-36)-induced cAMP response, SGS-72 cells [1]: 7.89 -log M
TMR-L11, dW12, W23-LA-PTH(5-36)-2004 (peptide) |  |  | 2.13 | 8.67 -log M | 
TMR-L11, dW12, W23-LA-PTH(7-36)-2002 (peptide) |  |  | 1.49 | 8.83 -log M | 
TMR-Nle8, L11, dW12, W23-LA-PTH(7-36)-1998 (peptide) |  |  | 2.21 | 8.65 -log M | 
TMR-Nle8, dW12, W23-LA-PTH(7-36)-1993 (peptide) |  |  | 3.34 | 8.48 -log M | 
TMR-dW12, W23-LA-PTH(7-36)-1991 (peptide) |  |  | 1.95 | 8.71 -log M | 

Second part, led by results:

IC50 (nanomolar value of the pIC50), antagonism of PTH(1-34)-induced cAMP response, GP-2.3 cells [1] | pIC50, antagonism of PTH(1-34)-induced cAMP response (GloSensor), GP-2.3 cells [1] | IC50, antagonism of PTH(1-34) (0.3 nM)-induced cAMP response, SGS-72 cells [1] [nM] | pIC50, antagonism of PTH(1-34) (0.3 nM)-induced cAMP response, SGS-72 cells [1] | Molecule | further results
2.8 µM | 5.55 -log M |  |  | Nle8, TMR, dW12, C35-bPTH(7-35)-1977 (peptide) | 
3.61 µM | 5.44 -log M | 20.3 | 7.69 -log M | Nle8, TMR, dW12, W23, C37-LA-PTH(5-37)-1975 (peptide) | IC50 (nanomolar value of the pIC50), antagonism of PTH(1-34)-induced cAMP response, SGS-72 cells [1]: 12 nM; IC50 (nanomolar value of the pIC50), antagonism of PTHrP(1-36)-induced cAMP response, SGS-72 cells [1]: 10 nM; IC50, antagonism of PTHrP(1-36) (0.3 nM)-induced cAMP response, SGS-72 cells [1]: 9.71 nM; pIC50, antagonism of PTH(1-34)-induced cAMP response, SGS-72 cells [1]: 7.91 -log M; pIC50, antagonism of PTHrP(1-36) (0.3 nM)-induced cAMP response, SGS-72 cells [1]: 8.01 -log M; pIC50, antagonism of PTHrP(1-36)-induced cAMP response, SGS-72 cells [1]: 8.01 -log M
224 nM | 6.65 -log M | 4.39 | 8.36 -log M | Nle8, dW12, W23, C37-LA-PTH(5-37)-1974 (peptide) | 
 |  | 1.75 | 8.76 -log M | Nle8, dW12, W23, Y36-LA-PTH(5-36)-1954 (peptide) | 
 |  | 3.02 | 8.52 -log M | TMR-Nle8, L11, dW12, W23-LA-PTH(5-36)-2000 (peptide) | 
1.96 µM | 5.71 -log M | 18.5 | 7.73 -log M | TMR-dW12, W23, C37-LA-PTH(5-37)-1976 (peptide) | 
160 nM | 6.8 -log M | 3.23 | 8.49 -log M | TMR-dW12, W23-LA-PTH(5-36)-1953 (peptide) | 
